In experiment [1] the target is human activated protein C (APC), wild type (human, UniProt P04070, gamma carboxylglutamic acid (Gla) residues in the amino-terminal Gla domain (x in Sequence ID No. 2); Gla content 8.7±0.3 per mole for protein C). In words: cell-based or functional assay.

Molecule “APC-PT Gla (activated chimeric protein C with the Gla domain and hydrophobic stack of prothrombin) (from UniProt P04070) (enzyme)” had a factor Va inactivation (three stage assay, residual factor Va activity in prothrombinase) (times more active than wild type APC) with factor Va of 5.

B1: human protein S (other)
chain: ANSLLEETKQGNLERECIEELCNKEEAREVFENDPETDYFYPKYLVCLRSFQTGLFTAARQSTNAYPDLRSCVNAIPDQCSPLPCNEDGYMSCKDGKASFTCTCKPGWQGEKCEFDINECKDPSNINGGCSQICDNTPGSYHCSCKNGFVMLSNKKDCKDVDECSLKPSICGTAVCKNIPGDFECECPEGYRYNLKSKSCEDIDECSENMCAQLCVNYPGGYTCYCDGKKGFKLAQDQKSCEVVSVCLPLNLDTKYELLYLAEQFAGVVLYLKFRLPEISRFSAEFDFRTYDSEGVILYAESIDHSAWLLIALRGGKIEVQLKNEHTSKITTGGDVINNGLWNMVSVEELEHSISIKIAKEAVMDINKPGPLFKPENGLLETKVYFAGFPRKVESELIKPINPRLDGCIRSWNLMKQGASGIKEIIQEKQNKHCLVTVEKGSYYPGSGIAQFHIDYNNVSSAEGWHVNVTLNIRPSTGTGVMLALVSGNNTVPFAVSLVDSTSEKSQDILLSVENTVIYRIQALSLCSDQQSHLEFRVNRNNLELSTPLKIETISHEDLQRQLAVLDKAMKAKVATYLGGLPDVPFSATPVNAFYNGCMEVNINGVQLDLDEAISKHNDIRAHSCPSVWKKTKNS
Consider B1, for which, in experiment [1], the “factor Va inactivation by APC with and without protein S” value worked out at 2 fold.

These data come from US5837843, “Modified protein C” (Oklahoma Medical Research Foundation, dated 1998).
